Source: patent publication US20060288448

Tests used:
β-casein, P02666 = biological target: T1, β-casein, P02666
T1 chain: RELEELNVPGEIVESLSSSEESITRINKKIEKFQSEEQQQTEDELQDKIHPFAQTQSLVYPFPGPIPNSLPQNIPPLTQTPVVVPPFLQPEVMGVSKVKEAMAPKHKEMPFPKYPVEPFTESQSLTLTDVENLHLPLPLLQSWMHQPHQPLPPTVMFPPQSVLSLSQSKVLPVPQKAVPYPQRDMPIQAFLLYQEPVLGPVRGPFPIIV

[1] = biological target: T2, Angiogenin peptide (Bachem), P03950 (not fully specified)
T2 chain: ENGLPVHLDQSIFRR

Sequence of κ-casein, P02668 (P02668 22-190): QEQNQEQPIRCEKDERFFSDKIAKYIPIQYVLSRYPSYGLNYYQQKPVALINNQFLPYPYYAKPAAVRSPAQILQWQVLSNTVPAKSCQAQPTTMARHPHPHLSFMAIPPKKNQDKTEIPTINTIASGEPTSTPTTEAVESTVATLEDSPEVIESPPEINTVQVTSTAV

B1: iwm2s.pk017.h10 cathepsin L-like protease of western corn rootworm midgut (protein)
chain: MKLFILAAALIVATSANLGAFEKWTSFKATHNKSYNVIEDKLRFAVFQDNLKKIEEHNAKYESGEETYYLAVNKFADWSSAEFQAMLARQMANKPKQSFIAKHVADPNVQAVEEVDWRDSAVLGVKDQGQCGSCWAFSTTGSLEGQLAIHKNQRVPLSEQELVDCDTSRNAGCNGGLMTDAFNYVKRHGLSSESQYAYTGRDDRCKNVENKPLSSISGYVELETTEDALASAVASVGPVSIAVDADTWQLYGGGLFNNKNCRTNLNHGVLAVGYTKDAFIVKNSWGTSWGEQGYIRVARGENLCGINLMNSYPKL
proteolytic digestion, cleavage site mapping (κ-casein, P02668): κ-casein was also digested with c9 and h10 ... major detectable cleavage sites were observed after Ser54, Asp62, Serl25, and Met127

B2: iwm2s.pk015.c9 cathepsin L-like protease of western corn rootworm midgut (protein)
chain: MKLLILAATLIVAINANLSAFEQWTSFKATHNKFYNVIEDKLRFAVFQENLRKIDAHNAKYEKGEETYYMAVNKFADWSSAEFQAMLDRQMANKPKQSFIAKHVVDPNVQAVEEVDWRESAVLGVKDQGQCGSCWAFSTTGSLEGQLAIHKNQRVPLSEQELVDCDKVNDGCDGGLMTDAFFYIEHHGLSSEEQYPYTGVDGHCNHVKDKQVSSISGYVELDETESALADALANVGPVSIAVEADTWQFYSGGVFNNKNCGDALNHGVLAVGYTKDVFIVKNSWGTGWGEQGYIRVARGSNLCGINLMNSYPKL
proteolytic digestion time course (SDS-PAGE, N-terminal sequencing) (β-casein, P02666): The time course of β-casein digestion by c9 showed a major ˜19 kD digestion product (indicated by black arrowhead) by 2 minutes after addition of enzyme | proteolytic digestion for 30 or 60 min (LC-MS, N-terminal sequencing) [1]: after 30 min two distinct pairs of cleavage products were detected that corresponded to cleavage immediately N-terminal to Leu8 or to Gln10 | proteolytic digestion, cleavage site mapping (κ-casein, P02668): κ-casein was also digested with c9 and h10 ... major detectable cleavage sites were observed after Ser54, Asp62, Serl25, and Met127
